Test results as given in a protein production outcome set (Wang et al. 2014).

Experiment: label from the status in PepcDB records

MKKILVGIPNYNNAAYIVDTIESVLKQSYSGVDVVVFDNASTDDSVEIIENTFLNNPNVLLKKSASNVGPTMNHNRCLEYAIDNEYDYLKVLSSDDVLLPNIIQEQFELLESEPRGAFATCNMIVTDDKLTKIKDHDFLGSNTDGNAVIKKCASHSANYIGGPSNGLLRVSCIGATRFSPEYKWLSDLKFYCDLLANRPFINTGTNGFFYRRHDNTDSSHVSKIKNLQRKESIRFSGEYGGNFLTKIKIYLRDIKSRLLLEHHHHHH
protein production: failed

MDISMKQSKRNLWWSVCAGLLFCSWGCSSQVSDKPVTLETLLDEMVSVEEQALYPVPSYTCRQESSYDRASVSPDSAGWFANSDGFGIKRVDTVAGRIEKVMFDEVGPGAITRIWITTIDKRGTWRFYFDGSDQPGWIIPAYDLMRINVPGLGKGMLQAHTSYTPEGKGGNTLFLPIPYARGCKVTFEDEPGVNPTPKYYHINFRKYPEGTQVETFSKEVVERAAQKIAEVDNRLLQPVAGRKGEILREEKSILPSDSLVIPLPAGENAVYEVKFNIRIDNPEQYAQLMRELVFSAGFDGKQTVWVPLSDFSGGGMGAPKVDSWYLTSDGKGNISSRWLMPYQKDGVLKVLNLSSRSVAATMEVNVAPLKWNKDRSLYFYASWRQENGIYIHDKPEEADQCVEWNFATLKGRGVYKGDLLSLYNHAPLWYGEGDEKIWVDDDTFPSHFGTGTEDYYNSSWAPVVPFYTPFGGAPRADLESSHGYNAFYRTRHLDGIPFNKSFKFDIEMLGWKRGEADYATTIYWYGDPEAQVFGTSGIEEARRQLLPAVEASADLEHHHHHH
protein production: not failed

MANPPSQEADHLVEAFRYTVAKLFLQQAQKDHLKADKEAIFVLSELLLGYIEILTADLEAFCRHGKRTTITADDVLLCCRRNENLVSRHMLINRAAAEISSFP
protein production: failed

MAYVLTETSAGYALLKASDKKIYKSSSLIQDLDSSDKVLKEFKIAAFSKFNSAANALEEANSIIEGKVSSQLEKLLEEIKKDKKSTLIVSETKLANAINKLGLNFNVVSDAVTLDIYRAIKEYLPELLPGMSDNDLSKMSLGLAHSIGRHKLKFSADKVDVMIIQAIALLDDLDKELNTYAMRCKEWYGWHFPELAKIVTDSVAYARIILTMGIRSKASETDLSEILPEEIEERVKTAAEVSMGTEITQTDLDNINALAEQIVEFAAYREQLSNYLSARMKAIAPNLTQLVGELVGARLIAHSGSLISLAKSPASTIQILGAEKALFRALKTKHDTPKYGLLYHASLVGQATGKNKGKIARVLAAKAAVSLRYDALAEDRDDSGDIGLESRAKVENRLSQLEGRDLRTTPKVVREAKKVEMTEARAYNADADTAKAASDSESDSDDEEEEKKEKKEKKRKRDDDEDSKDSKKAKKEKKDKKEKKEKKEKKEKKEKKEKKEKKSKKEKKEKK
protein production: failed

MDPEIQPPPGKAEIKAKIWKLKTAPKIKHFLWKLLSGALATGDNLKRRHIRNHPQCHRCCQEDETSQHLFFDCFYAQQVWRASGIPHQELRTTGITMETKMELLLSSCLANRQPQLFNLAIWILWRLWKSRNQLVFQQKSISWQNTLQRARNDVQEWEDTNTYVQSLNQQVHSSRHQQPTMARTKWQRPPSTWIKYNYDGAFNHQTRNAKAGWLMRDENGVYMGSGQAIGSTTSDSLESEFQALIIAMQHAWSQGYRKVIFEGDSKQVEELMNNEKLNFGRFNWIREGRFWQKRFEEAVFKWVPRTNNQPADILAKHHLQPNQSFKFHYYVPAFITSTLYYDH
protein production: failed

MKTKQTDELLAKDEQYVWHGMRPFSPNSTMVGAKAEGCWVEDIQGKRYLDGMSGLWCVNSGYGRKELAEAAYKQLQTLSYFPMSQSHEPAIKLAEKLNEWLGGEYVIFFSNSGSEANETAFKIARQYYAQKGEPHRYKFMSRYRGYHGNTMATMAATGQAQRRYQYEPFASGFLHVTPPDCYRMPGIERENIYDVECVKEVDRVMTWELSETIAAFIMEPIITGGGILMPPQDYMKAVHETCQKHGALLISDEVICGFGRTGKAFGFMNYDVKPDIITMAKGITSAYLPLSATAVKREIYEAFKGKGEYEFFRHINTFGGNPAACALALKNLEIIENENLIERSAQMGSLLLEQLKEEIGEHPLVGDIRGKGLLVGIELVNDKETKEPIDNDKIASVVNACKEKGLIIGRNGMTTAGYNNILTLAPPLVISSEEIAFVIGTLKTAMERI
protein production: failed

MPPLCRRQSGVPSGRRARHSGGMRLLVLGGTEFVGRSVVEAALGRGWEVTVLHRGRHAPPPGVRALHGDRTAPDGLTALTGAEDTWDAVVDTWSAAPRAVRDAARLLRQRAGRYVYVSSCSVYAWAPPAGYAEDAPLVEGASADAGQRDYARDKRGAELAVLDAFGADRSVLVRAGLILGPYENVGRLPWWLNRLARGGPVLAPGPRDLPLQYIDVRDLADWVLGAVERELSGPYNLVSPPGHTTMGGLLEACATVTGGTAELRWTSPETVLAAGIEPWVQLPVWTPPGSDLHDALHTADVSRALATGLVCRPARDTAAGTWTWLRDLGGTAPQRPDRPPVGLDPETEAKVLAADGPGGGVSDTTP
protein production: failed

MKFSEECRSAAAEWWEGSFVHPFVQGIGDGTLPIDRFKYYVLQDSYYLTHFAKVQSFGAAYAKDLYTTGRMASHAQGTYEAEMALHREFAELLEISEEERKAFKPSPTAYSYTSHMYRSVLSGNFAEILAALLPCYWLYYEVGEKLLHCDPGHPIYQKWIGTYGGDWFRQQVEEQINRFDELAENSTEEVRAKMKENFVISSYYEYQFWGMAYRKEGWSDSAIKEVEECGASRHNG
protein production: not failed

PGSFSQEAAEIFGSDLVPVRSISEIFHKISVTGDYGIVPIENSIEGPVNETLDGLFRHEDIYIVDHVEIPIEIFLASNCDTENIRRIYSHPHAIAEAGDYLERTENIEVIRTSSTSEAAKLASMDEAGAALCSMKAAQHYGLANTVKIESKSRNITRFILIGRERN
protein production: not failed

MTTNRETVLSMAKRKRSVVAINASGWRSNGEVMGLQIKDGVLYKDYDAAGYTGAEACVFFDDGTMKVYGNREVDADILISKGARNSFAFGIWLVKDSKPRTAQMTTWADLNVKHPRQAIGQRSDGTLVIITVDGRSLRSSGITAYDMPSLFLSEGCINAFLLDGGGSSQTAVEGKYINNISDGIERAVVDTLTISYPDDLEHHHHHH
protein production: failed

NNELTQFLPRIVTLKKPPGAQLGFNIRGGKASQLGIFISKVIPDSDAHRAGLQEGTXVLAVNDVDFQDIEHSKAVEILKTAREISMRVRFF
protein production: not failed

MVSNSSITFKEFVDYWFEAYASTAVKPSTQKRYRQLLKPALRAIGNKPLNKVKPLDIQNIYIALAGTQSNCTILKLHRLLHEIFKHAQMWEYISDNPVKKVVPPTPEKKVFDLEHHHHHH
protein production: failed

MSLELPAEVQEMPIYREWISGILAGKIASPFWEMAQPQKNQHCLDIGCGVSFLIYPWRDWQAFFYGQDVSNVARDTLNSRGSQLNSKLFKGVELGAAHQLKYTLSYFDLAIATGFSCYFPLEYWTSVLQAVKRVLKPDGHFVFDILNAAHPQAEDWAVLETYLGAEVFLEPVTEWEKIINAAGAKVVGRQPGEFFDLYKLRLEHHHHHH
protein production: not failed

MIHDDQKPSSSLDLQEIRIQIDSVDQQIQELINRRATLAEAVAKAKFASEENPLFYRPEREAQVLRKVMERNQGPLSDVTMARLFREIMSACLALEAPQSIAFLGPEGTFTQSAALKHFGKDAVVRPLPTIDEVFREVEAGSAHYGVVPVENSSEGVVNHTLDCFRTSQLNVIGEVELRIHHQFLVSHNTRKDSIKQIYAHQQALAQCRQWLDTHYPGVERVALSSNAEAARRIRNEWHSAAIASDIAASMYDLEIFHSNIEDNPENTTRFLVIGREKIPQSGNDKTSLLISAHDRAGALLEILAPFAKHKISLTSIETRPALPEKWAYVFFIDLEGHIEQENVAAAIDDIRPLVKELRILGSYPAAVL
protein production: failed

MNRLLNEKVEEFKKGVLKAGWFIEKMFRNSISSLVERNESLAREVIADEEVVDQMEVEIQEKAMEVLGLFSPIGKPLLTVTAGIRVAELIENIADKCHDIAKNVLELMEEPPLKPLEDIPAMANQTSEMLKFALRMFADVNVEKSFEVCRMDSKVDDLYEKVREELLLYMMESPKYVKRALLLLEIAGNIEIIADYATNIVEVSVYMVQGEAYKCYHDELLLFKKSGGVLFESSD
protein production: not failed
